Paper PMC12884264

How the values were obtained:
[1] = target: supercharged green fluorescent protein GFP(+28) [GFP: P42212]; assay: SEC
[2] = target: supercharged green fluorescent protein GFP(+36) [GFP: P42212]; assay: SEC
[3] = target: computationally designed GFP(+16)BE (positive charges mainly at both ends of the barrel) [GFP: P42212]; assay: SEC
[4] = target: Archaeoglobus fulgidus ferritin, wildtype (Archaeoglobus fulgidus) (UniProt O29424); assay: SEC + other: UV/Vis absorbance
[5] = target: Archaeoglobus fulgidus ferritin, wildtype (Archaeoglobus fulgidus) (UniProt O29424); assay: time-resolved fluorescence anisotropy

Substance: Archaeoglobus fulgidus ferritin, wildtype (from UniProt O29424 1-173) (natural protein)
- Kd [1]: 36.7 µM
- Kd [2]: 22.7 µM
- stoichiometry N (GFP per 24 mer) [2]: 3
- Kd [3]: 51.5 µM

Substance: supercharged green fluorescent protein GFP(+36) (from UniProt P42212 1-238)
- stoichiometry N (GFP per ferritin cage) [4]: 2 to 3
- stoichiometry N (GFP(+36) per 24 mer ferritin) [4]: 0.7
- stoichiometry N (GFP(+36) per AfFtn24) [4]: 1.2
- stoichiometry N (GFP(+36) per ferritin 24 mer) [4]: 4 to 5
- stoichiometry N (AfFtn2 per GFP(+36)) [5]: 12
- stoichiometry N (GFP(+36) per cage) [5]: 1
